T1: Aurora A_(D274N) kinase domain (human, UniProt O14965 122-403, D274N)
T1 sequence: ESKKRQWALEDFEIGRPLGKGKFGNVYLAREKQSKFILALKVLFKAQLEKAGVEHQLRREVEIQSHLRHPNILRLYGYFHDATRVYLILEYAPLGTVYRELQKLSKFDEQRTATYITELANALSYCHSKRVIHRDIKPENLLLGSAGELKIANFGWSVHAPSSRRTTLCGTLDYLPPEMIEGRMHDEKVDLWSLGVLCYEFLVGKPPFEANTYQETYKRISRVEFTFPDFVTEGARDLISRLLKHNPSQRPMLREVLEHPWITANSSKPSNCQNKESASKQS

B1: Aurora A wild-type kinase domain (untagged) (domain or fragment)
chain: FEIGRPLGKGKFGNVYLAREKQSKFILALKVLFKAQLEKAGVEHQLRREVEIQSHLRHPNILRLYGYFHDATRVYLILEYAPLGTVYRELQKLSKFDEQRTATYITELANALSYCHSKRVIHRDIKPENLLLGSAGELKIADFGWSVHAPSSRRTTLCGTLDYLPPEMIEGRMHDEKVDLWSLGVLCYEFLVGKPPFEANTYQETYKRISRVEFTFPDFVTEGARDLISRLLKHNPSQRPMLREVLEHPWI
B2: CK2α kinase (enzyme)
chain: SGPVPSRARVYTDVNTHRPREYWDYESHVVEWGNQDDYQLVRKLGRGKYSEVFEAINITNNEKVVVKILKPVKKKKIKREIKILENLRGGPNIITLADIVKDPVSRTPALVFEHVNNTDFKQLYQTLTDYDIRFYMYEILKALDYCHSMGIMHRDVKPHNVMIDHEHRKLRLIDWGLAEFYHPGQEYNVRVASRYFKGPELLVDYQMYDYSLDMWSLGCMLASMIFRKEPFFHGHDNYDQLVRIAKVLGTEDLYDYIDKYNIELDPRFNDILGRHSRKRWERFVHSENQHLVSPEALDFLDKLLRYDHQSRLTAREAMEHPYFYTVVK

Experiments:
Test in all cases: ITC
[1] = target: T2, cRAD-TPX2_((7–43)) display protein (Pyrococcus furiosus | human, UniProt O74036 108-287; O74036 302-349, K144A)
[2] = target: T2, cRAD-TPX2_((7–43)) display protein; remark: listed apart in the source
[3] = target: cRAD-CK2β_((186–200)) display protein (Pyrococcus furiosus | human, UniProt O74036 108-287; P67870 186-200; O74036 302-349, K144A)
CK2α kinase = target: B2
[4] = target: T1, Aurora A_(D274N) kinase domain

Question: Which results are given for B1?
Answer: Kd [1]: 15.9 nM; Ka [2]: 6.27e+07 M⁻¹

Question: How did the Ka [3] turn out when B2 was run?
Answer: 7.13e+06 M⁻¹

Question: How did the Ka (CK2α kinase) turn out when RLYGFKIHPMAYQLQ [synthetic linear CK2β_((186–200)) peptide] was run?
Answer: 7.27e+06 M⁻¹

Question: How did the Ka [4] turn out when LSYSYDAPSDFINFSSLDDEGDTQNIDSWFEEKANLENLKGGGCQM [linear TPX2_((7–43)) peptide] was run?
Answer: 8.71e+06 M⁻¹

From publication PMC5897841 (2017)
